In patent US20250051759A1, “METHODS AND MOLECULES FOR RNA INTERFERENCE (RNAi)” (BOEHRINGER INGELHEIM INTERNATIONAL GMBH, priority 2021, published 2025):
Entries after “also recorded” stand apart in the source; their conditions may differ.

B1: ARTi-shRNA 6634: ARTi-shRNAmir, antisense RNA UUCGAUUAAAACAUCAUCCGGA (SEQ ID NO: 10), 97 mer SEQ ID NO: 22 (nucleic acid)
chain: UGCUGUUGACAGUGAGCGCCCGGAUGAUGUUUUAAUCGAAUAGUGAAGCCACAGAUGUAUUCGAUUAAAACAUCAUCCGGAUGCCUACUGCCUCGGA
B2: ARTi-shRNA 6786: ARTi-shRNAmir, antisense RNA UUCGUAUACAAUAUCAUCCGGA (SEQ ID NO: 12), 97 mer SEQ ID NO: 24 (nucleic acid)
chain: UGCUGUUGACAGUGAGCGCCCGGAUGAUAUUGUAUACGAAUAGUGAAGCCACAGAUGUAUUCGUAUACAAUAUCAUCCGGAUGCCUACUGCCUCGGA
B3: ARTi-shRNA 6570: ARTi-shRNAmir, antisense RNA UUCGAUAACAAUAUCAUCCGGA (SEQ ID NO: 6), 97 mer SEQ ID NO: 18 (nucleic acid)
chain: UGCUGUUGACAGUGAGCGCCCGGAUGAUAUUGUUAUCGAAUAGUGAAGCCACAGAUGUAUUCGAUAACAAUAUCAUCCGGAUGCCUACUGCCUCGGA

Key:
RN2 (AML) cells = assay: Competitive proliferation assay; type: cell-based, mouse; conditions: monitored for 8 days, no endogenous target gene
Experimental: (§1) The 3 best-performing ARTi-shRNAmirs were analyzed for their effects on proliferation of diverse mouse cell lines originating from different tissues. This experimental step monitors potential off-target effects. Should an off-target, relevant to the proliferative capacity be knocked down, a decrease in cellular fitness would be expected. NIH 3T3 (embryonic fibroblasts), EPP2 (PDAC) and RN2 (AML) cells were transduced with ARTi-shRNAs or validated control shRNAs. Subsequently, the percentage of shRNA expressing cells was monitored via flow cytometry in regular intervals for 8 days in competitive co-culture assays. For competitive proliferation assays, NIH 3T3, EPP2 and RN2 cells were retrovirally transduced with shRNAmir expression plasmids and initial infection levels were determined by flow cytometry based on mCherry expression 4 days post transduction (Day 0). The percentage of infected cells was then further monitored in regular intervals to determine the effects of shRNA expression in the absence of an endogenous target gene for the ARTi-shRNAmirs.

[1] = test system: NIH 3T3, EPP2 and MR125 cells; assay: Transcriptional profiling (QuantSeq) for off-target effects; type: cell-based, mouse; conditions: cells expressing ARTi-shRNAs vs empty vector control, no target gene expression
Experimental: To directly quantify off-target effects of the top 3 ARTi-shRNAs, transcriptome profiling in NIH 3T3, EPP2 and MR125 cells expressing ARTi-shRNAs or empty vector control was performed. For the unbiased identification of ARTi shRNA off-targets NIH-3T3, EPP2 and MR125 cells were retrovirally transduced with shRNAmir expression plasmids and selected for shRNA expression using G418 Sulfate (0.5 mg/mL for EPP2 and NIH 3T3 and 1 mg/mL for MR125, respectively; Gibco). 1.5×106 (NIH 3T3 and EPP2) or 2×106 (MR125) cells were pelleted, washed with PBS, lysed, treated with DNAse I and whole RNA was extracted using magnetic beads (in-house) and a KingFisher Duo Prime Purification System (ThermoFisher). Next generation sequencing libraries were prepared using QuantSeq 3′ mRNA-Seq Library Prep Kit (Lexogen) according to manufacturer's instructions and sequenced on a HiSeq2500 platform (Illumina).
RefSeq genes and 3′-UTR annotations were prepared from the UCSC table browser (https://genome.ucsc.edu/cgi-bin/hgTables, May 2016). […] Reads were aligned to the GRCm38 primary assembly using Slamdunk v0.2.410 in QuantSeq mode (slamdunk map-5 12-n 100-q) and alignments were filtered to recover multimappers with the acquired 3′-UTR set (slamdunk filter-b). Reads were quantified against said 3′-UTR annotation using featureCounts v1.5.0-p211 using stranded counting and counting multimapping reads (−M ˜s 1). […]

[2] = test system: NIH 3T3, EPP2 and RN2 cells; assay: Competitive proliferation assays, result stated for all cell lines together; type: cell-based, mouse; conditions: all tested cell lines, competitive co-culture
Experimental: as §1

EGFR^del19::dsRed::ARTi = assay: Western blot of doxycycline induced knockdown in PC-9 cells; type: cell-based; conditions: endogenous EGFR knocked out, doxycycline induced expression
Experimental: The EGFR^del19::Linker::dsRed::ARTi construct was transduced into EGFR^del19dependent PC-9 cells. The endogenous EGFR gene was then knocked out using CRISPR/Cas9, making the PC-9 cells dependent on EGFR^del19::dsRed::ARTi. PC-9 cell pellets for different genetic backgrounds and treatments were lysed in triton lysis buffer, sonicated, and stored at −80° C. until for protein detection, the pellets were thawed on ice, followed by 15 minutes centrifugation at 13,000 rpm at 4° C. Then, cell lysates were loaded onto a 12% pre-casted SDS-polyacrylamide gel electrophoresis and proteins were transferred onto a nitrocellulose membrane and PDVF-membrane, respectively. Both membranes were probed with the respective primary antibodies overnight. The next day, the secondary antibodies conjugated with fluorescent dye were added and the proteins were detected by the Odyssey detection system.

| Molecule | growth compared to non-transduced cells in competitive co-culture (RN2 (AML) cells) | growth compared to non-transduced cells in competitive co-culture (RN2 (AML) cells; listed as ARTi.6634) | transcriptional effects / responses (principal component analysis) [1] | percentage of shRNA expressing cells over time / toxicity [2] | EGFR^del19::dsRed::ARTi protein levels (EGFR^del19::dsRed::ARTi) |
| --- | --- | --- | --- | --- | --- |
| B1 | growth disadvantage; also recorded: adverse effect | considerable growth disadvantage | – | – | – |
| B2 | – | – | only mild transcriptional responses | no considerable toxicity | – |
| B3 | – | – | only mild transcriptional responses | no considerable toxicity | reduction |
